According to patent US20160244499A1:

Target: C-terminally biotinylated γc ectodomain (human) (UniProt P31785)
Assay: site 2 affinity of free super-4 for γc; method not stated

Kd: 300 nM
B1: super-4 (IL-4 RGA), free, not bound to IL-4Rα (ligand)
chain: HKCDITLQEIIKTLNSLTEQKTLCTELTVTDIFAASKNTTEKETFCRAATVLRQFYSHHEKDTRCLGATAQQFHRHKQLIRFLKRLDRNLWGLAGLNSCPVKEANQSTLENFLERLRVIMQSKWFKCGAHHHHHH
